Experimental findings from publication PMC10786891, “Massively parallel profiling of RNA-targeting CRISPR-Cas13d” are described below.

Sequences and labels used below:
T1: EsCas13d, nuclease-dead (Eubacterium siraeum, UniProt B0MS50, R295A;H300A;R849A;H854A)
T1 sequence: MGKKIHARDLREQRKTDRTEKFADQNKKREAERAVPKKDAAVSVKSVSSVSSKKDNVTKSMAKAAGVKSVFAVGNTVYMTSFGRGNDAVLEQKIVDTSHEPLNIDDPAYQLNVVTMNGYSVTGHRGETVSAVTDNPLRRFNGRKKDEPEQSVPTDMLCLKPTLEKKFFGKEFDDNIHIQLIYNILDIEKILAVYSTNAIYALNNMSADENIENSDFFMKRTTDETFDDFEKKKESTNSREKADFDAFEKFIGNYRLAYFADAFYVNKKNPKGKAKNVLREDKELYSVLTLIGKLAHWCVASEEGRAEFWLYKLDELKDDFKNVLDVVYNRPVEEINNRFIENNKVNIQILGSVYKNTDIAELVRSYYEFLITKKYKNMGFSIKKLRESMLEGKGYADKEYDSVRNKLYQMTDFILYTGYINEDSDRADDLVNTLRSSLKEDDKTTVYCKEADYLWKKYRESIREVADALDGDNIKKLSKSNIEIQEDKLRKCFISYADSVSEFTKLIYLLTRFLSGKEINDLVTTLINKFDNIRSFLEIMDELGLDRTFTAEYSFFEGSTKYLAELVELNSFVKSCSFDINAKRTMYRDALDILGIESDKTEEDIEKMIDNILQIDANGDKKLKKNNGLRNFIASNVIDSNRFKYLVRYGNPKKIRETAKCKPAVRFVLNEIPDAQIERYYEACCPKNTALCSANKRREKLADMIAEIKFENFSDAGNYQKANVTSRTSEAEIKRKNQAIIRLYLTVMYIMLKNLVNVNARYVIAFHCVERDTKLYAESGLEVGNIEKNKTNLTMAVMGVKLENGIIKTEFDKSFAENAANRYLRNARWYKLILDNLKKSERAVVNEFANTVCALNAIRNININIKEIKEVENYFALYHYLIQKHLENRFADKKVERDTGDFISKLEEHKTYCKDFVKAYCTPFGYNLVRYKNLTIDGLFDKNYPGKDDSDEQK

B1: target 1 A9G,G13U (mixed)
RNA 1: CACCCGUGCAAAAAUGCAGGGGUCUAAAACUGAGCGGAUAACCUCUCUAUGG
RNA 2: GGGAAUGGAUCCACAUCUACGAAUUCGUACCAUAGAGAUGUUGUCCGCUCACCGAGAUCGGAAGAGCACACGU
B2: target 1 insC 3' of 20,insA 3' of 7 (mixed)
RNA 1: B1 RNA 1
RNA 2: GGGAAUGGAUCCACAUCUACGAAUUCGUACCACUAGAGAGGUUAUCACGCUCACCGAGAUCGGAAGAGCACACGU
B3: target 1 U3C,U8A (mixed)
RNA 1: B1 RNA 1
RNA 2: B1 RNA 2 with U39G, G43A, U44A, U49C
B4: target 1 insG 3' of 22,insC 3' of 13 (mixed)
RNA 1: B1 RNA 1
RNA 2: B2 RNA 2 with C31G, A32C, C33A, G41C, U42G, A44U, U45A, C46U, A47C
B5: target 1 C6U,U10C (mixed)
RNA 1: B1 RNA 1
RNA 2: B1 RNA 2 with U39G, U42C, G43A, C46U
B6: target 1 insC 3' of 19,insU 3' of 4 (mixed)
RNA 1: B1 RNA 1
RNA 2: B2 RNA 2 with C33U, U34C, A47C, C48G, G49C, C50U
B7: target 1 C7G,A16U (mixed)
RNA 1: B1 RNA 1
RNA 2: B1 RNA 2 with A36U, U39G, G43A, C45G
B8: target 1 A1U,C21A (mixed)
RNA 1: B1 RNA 1
RNA 2: B1 RNA 2 with C31A, U39G, G43A, A51U
B9: target 1 insC 3' of 9,insG 3' of 9 (mixed)
RNA 1: B1 RNA 1
RNA 2: GGGAAUGGAUCCACAUCUACGAAUUCGUACCAUAGAGAGGUUACGUCCGCUCACCGAGAUCGGAAGAGCACACGU
B10: target 1 C4G,U11G (mixed)
RNA 1: B1 RNA 1
RNA 2: B1 RNA 2 with U39G, U41G, G43A, C48G
B11: target 1 C6G,U10A (mixed)
RNA 1: B1 RNA 1
RNA 2: B1 RNA 2 with U39G, U42A, G43A, C46G
B12: target 1 G13A,U19G (mixed)
RNA 1: B1 RNA 1
RNA 2: B1 RNA 2 with U33G, U39A, G43A
B13: target 1 A9G,G15C (mixed)
RNA 1: B1 RNA 1
RNA 2: B1 RNA 2 with G37C, U39G
B14: target 1 G12A,G17A (mixed)
RNA 1: B1 RNA 1
RNA 2: B1 RNA 2 with G35A, U39G, G40A, G43A
B15: target 1 C7A,A9U (mixed)
RNA 1: B1 RNA 1
RNA 2: B1 RNA 2 with U39G, G43U, C45A
B16: target 1 complement block 5-7 (mixed)
RNA 1: B1 RNA 1
RNA 2: B1 RNA 2 with U39G, G43A, C45G, C46G, G47C
B17: target 1 C4G,U8A (mixed)
RNA 1: B1 RNA 1
RNA 2: B1 RNA 2 with U39G, G43A, U44A, C48G
B18: target 1 C4G,A14C (mixed)
RNA 1: B1 RNA 1
RNA 2: B1 RNA 2 with A38C, U39G, G43A, C48G
B19: target 1 A1G,C21A (mixed)
RNA 1: B1 RNA 1
RNA 2: B1 RNA 2 with C31A, U39G, G43A, A51G
B20: target 1 insG 3' of 9,insG 3' of 8 (mixed)
RNA 1: B1 RNA 1
RNA 2: B9 RNA 2 with C44G, G45U, U46G
B21: target 1 insU 3' of 13,insG 3' of 11 (mixed)
RNA 1: B1 RNA 1
RNA 2: B9 RNA 2 with G40U, U41G, A43G, C44U, G45A
B22: target 1 G5C,U10G (mixed)
RNA 1: B1 RNA 1
RNA 2: B1 RNA 2 with U39G, U42G, G43A, G47C
B23: target 1 complement block 1-12 (mixed)
RNA 1: B1 RNA 1
RNA 2: GGGAAUGGAUCCACAUCUACGAAUUCGUACCAUAGAGAGCAAUAGGCGAGUCCGAGAUCGGAAGAGCACACGU
B24: target 1 insG 3' of 21,insG 3' of 7 (mixed)
RNA 1: B1 RNA 1
RNA 2: B2 RNA 2 with A32G, C33A, A47G
B25: target 1 insU 3' of 21,insG 3' of 7 (mixed)
RNA 1: B1 RNA 1
RNA 2: B2 RNA 2 with A32U, C33A, A47G
B26: target 1 complement block 2-12 (mixed)
RNA 1: B1 RNA 1
RNA 2: B23 RNA 2 with U51A
B27: target 1 C7U,A20C (mixed)
RNA 1: B1 RNA 1
RNA 2: B1 RNA 2 with A32C, U39G, G43A, C45U
B28: target 1 insA 3' of 22,insU 3' of 14 (mixed)
RNA 1: B1 RNA 1
RNA 2: B2 RNA 2 with C31A, A32C, C33A, G40U, U42G, A44U, U45A, C46U, A47C
B29: target 1 U19G,C21A (mixed)
RNA 1: B1 RNA 1
RNA 2: B1 RNA 2 with C31A, U33G, U39G, G43A
B30: target 1 insC 3' of 12,insG 3' of 7 (mixed)
RNA 1: B1 RNA 1
RNA 2: B9 RNA 2 with U41C, A43U, C44A, G45U, U46C, C47G
B31: target 1 A18U,A20U (mixed)
RNA 1: B1 RNA 1
RNA 2: B1 RNA 2 with A32U, A34U, U39G, G43A
B32: target 1 insC 3' of 3,insA 3' of 2 (mixed)
RNA 1: B1 RNA 1
RNA 2: B9 RNA 2 with C44U, G45C, U46C, C47G, G49U, U51C, C52A

Positions count from the first letter of the chain named. Names and notes keep the numbering of the source.

This data set has as its target T1, EsCas13d, nuclease-dead. In words: crRNA (strand 1, pre-loaded); Mg2+; 40 mM Tris-HCl pH 7.5, 150 mM NaCl, 6 mM MgCl2, 1 mM DTT, 0.1% Tween-20, 0.2 mg/ml BSA; 25 C; 10 min per concentration, then washed. The conditions noted are these: tags: His6-TwinStrep-SUMO cleaved; N-terminal SNAP kept (SNAP-Surface 488); label: 3' end held by stalled T7 RNA polymerase.
Take B1: the Kd is 53 ± 6 nM.

B2 registered a Kd of 7.49 ± 0.35 nM.

Take B3: the affinity, expressed as Kd, was 18.7 ± 1.5 nM.

Consider B4, for which the affinity, expressed as Kd, was 44 ± 6 nM.

As for B5, binding was put at a Kd of 19.7 ± 0.8 nM.

With B6, the dissociation constant (Kd) is 32.2 ± 3.2 nM.

The molecule B7 displayed a Kd of 53 ± 4 nM.

In the case of B8, binding was characterised by a dissociation constant (Kd) of 25.3 ± 3.1 nM.

B9 displayed a Kd of 18.5 ± 1.2 nM.

B10 showed a Kd of 5.73 ± 0.29 nM.

As for B11, the Kd is 8.6 ± 0.6 nM.

In the case of B12, binding was put at a Kd of 80 ± 40 nM.

The molecule B13 displayed a dissociation constant (Kd) of 67 ± 20 nM.

The molecule B14 had a Kd of 30.8 ± 3.2 nM.

B15 gave a dissociation constant (Kd) of 7.5 ± 0.4 nM.

Take B16: the dissociation constant Kd came to 32.9 ± 1.5 nM.

Molecule B17 displayed a Kd of 7.4 ± 0.4 nM.

In turn, B18 had a Kd of 14.1 ± 2.8 nM.

For the molecule B19, the Kd came out at 27 ± 4 nM.

Regarding B20, the equilibrium dissociation constant (Kd) was found to be 17.2 ± 1.3 nM.

With B21, the Kd was 39 ± 8 nM.

For B22, the Kd turned out to be 17.5 ± 0.9 nM.

Take B23: the affinity, expressed as Kd, was 19.6 ± 1 nM.

On to B24, for which binding was characterised by a dissociation constant (Kd) of 68 ± 5 nM.

In the case of B25, the equilibrium dissociation constant (Kd) amounted to 23.6 ± 2 nM.

In the case of B26, the Kd was 23.4 ± 1.6 nM.

As to B27, the dissociation constant (Kd) came to 37 ± 8 nM.

Consider B28, for which the Kd turned out to be 41 ± 20 nM.

B29 showed a Kd of 56 ± 7 nM.

Molecule B30 displayed a Kd of 16.2 ± 0.9 nM.

As to B31, binding was characterised by a dissociation constant (Kd) of 95 ± 17 nM.

As to B32, the dissociation constant Kd is 13.6 ± 1.2 nM.

As usually defined, the Kd is the free concentration of one partner at which half of the binding sites on the other are occupied at equilibrium, for simple one-to-one binding. Higher therefore signals a looser complex.
